# Assay results reported in paper PMC13601591 (Nature Communications, 2026).
# Target: the molecule itself
# Test: SDS-resistant oligomer on SDS-PAGE and immunoblot
protein,measurement,value
"fh1-HAP2-HA (HAP2 with W173A and F177A mutations in the fusion loop) (natural protein, Chlamydomonas reinhardtii, UniProt A4GRC6 23-1139, looked up) EVIASGRLEKCVVDGVTEELDCQEKVVVTLTVGNGQSLQTEALEFSLSCLNSPDGRCPCSCSAADPTCACRDLAAPLRVSLTKSPLWASYPLQYLSSFNWKPLEVILRPSNKVCKDGDWEDSPTCGWFSQGGVRVADSQGFCCECSSSQVADDTAGSSKERTRANLDCDFWSDPLDILIGRKPVSAHCLTFDPQWYSGYELGAASLQFEIAITVEVPTAPSPTTATTSATPRTNNSSSANSTNSTNSPAPQFLSPPAPSTREVLHLGPSVPLASSASRLLSAKLLGDLAMYTQLPAISNQVLMVPQPPAAAAATGSPLDATLATNRSAWMLLDKTMLSMDGLACDKVGTGFSAFRYQPSGCGRAPQACLSGQLKDLWEADLARIADGRVPLYMITRFTGGSDTTLQSFSGGPLSFALPVTSHSQSLVTLSVAADGVRLVTNRSPGKITGAAVCRFAGTSCGGFEAVAARGYIYVNITNTGRLDSDYTLTVSNCSSNVRPIEARTLAVRAGSAASLDPPMELYVEDQAAAAARTCTVSLYDSVGAVTDSLTLSFYTNATQLVVKPSGGYNGTGDGAGVKRNGTDCSTACTNPIDVLCFVTKKCWSKFGRLLGIIGGALVGLGLLAVALKFGWLASLAASCCGGGGGAAAGGAGGGMGLGTGGGGGCFGGGQQQQQLPPAASHAMSPPQQQQRSHAEVAAGAAVAGAGAAGAAAAVLGAKHGGGGGGARGKQQHADTRHLQDRDSRAIDGGASIGSSSAGGSSSLSSYSQPREAGGRLLQPPAAAVFVPEGGGGGAAGDEGARAQSSDWDARGRSPRVADEHGSPRQRYDGVRQSPYMVSANPYDGWYDGGSGGGGGGGGGGYGREAPPPQGPPPHPVGAPPPPPRRRSLWERMWLQRPGGGGGGGGGGGGGGGGGSGGGVDQHGGRSCADAARRGGGGPGGMRGVEGLMSNGGRPNGPHPHAPPPPPPPQQQQQQQRQRRSFLESLTAMMTLPWGGGREEEAGGDRRGGGRGGAAAAHGGRGAGGGRGHPPSIGSPPPGPLQPPEYGPQGGQARRWGAGGGRGGVGGDGGGGGVGAAAYVQLSTGGRGGGGGGGRGRGGGREGPTWHNPVYDWQAPPK",stoichiometry N,3
